Measurements: publication PMC10200060, “Inhibition of DAMP actions in the tumoral microenvironment using lactoferrin-glycyrrhizin conjugate for glioblastoma therapy” (Biomaterials Research, 2023)

Legend:
[1] = molecular target: T1, human recombinant HMGB1 protein (Homo sapiens, UniProt P09429); test: SPR binding affinity against HMGB1
T1 construct: purchased Abcam
T1 sequence (P09429 1-215): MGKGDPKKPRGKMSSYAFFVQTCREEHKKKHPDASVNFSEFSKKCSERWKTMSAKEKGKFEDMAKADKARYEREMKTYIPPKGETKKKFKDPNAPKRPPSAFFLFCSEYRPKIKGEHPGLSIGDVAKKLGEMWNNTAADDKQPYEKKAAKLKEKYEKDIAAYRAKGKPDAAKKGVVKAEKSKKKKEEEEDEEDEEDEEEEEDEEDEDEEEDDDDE
Protocol: To confirm the binding affinity of Lf-GL to HMGB1, Surface Plasmon Resonance (SPR) was conducted at WoojungBSC (Korea). The Reichert SR7500DC system (Reichert technologies, NA, USA) and Scrubber2 software (Biologic software, FRA) were used, and a CMDH chip (Cat #: 13,206,066, Reichert technologies) was used for immobilization of the human recombinant HMGB1 protein (Abcam). HMGB1 protein was used as a ligand, and the analytes were HMGB1 antibody (Abcam), GL, Lf and Lf-GL conjugate. The immobilization buffer was S.A. (10 × 10^–3 M, pH 4.5), and the running buffer was PBS (pH 7.4). The flow rate of the analyte was 30 μL min^−1. The association and dissociation time were 3 min each, and measurements were conducted at room temperature. Results are expressed in response units (RU) over time.
Fig. S5. Binding affinity against HMGB1. Surface Plasmon Resonance (SPR) was conducted at WoojungBSC (Korea). The Reichert SR7500DC system (Reichert technologies, NA, USA) and Scrubber2 software(Biologic software, FRA) were used and the CMDH chip (Cat #: 13206066, Reichert technologies) was used for immobilization of the human recombinant HMGB1 protein (Abcam). HMGB1 protein was used as ligand and analytes were HMGB1 antibody (Abcam), GL, Lf and Lf-GL conjugate. Immobilization buffer was 10 mM S.A. (pH 4.5) and running buffer was 1× PBS. The flow rate of the analyte was 30 μL min^-1. The association and dissociation time were 3 min each and conducted at room temperature. Results are expressed in response units (RU) over time.

HMGB1 = test: HUVEC co-cultured with U87MG: HMGB1 ELISA; format: cell-based, human; conditions: HUVEC/U87MG co-culture, 100 μM GL equivalent, 24 h (control 217.8 ± 5.9)
Protocol: To evaluate the inhibitory effect of Lf-GL on neovascularization in the tumor microenvironment in vitro, U87MG cells were seeded in the Transwell® insert chambers that were 6.5 mm in diameter and had 0.4 μm pore sizes (seeding density: 2.5 × 10^4 cells per well, Corning). HUVECs were seeded in the Transwell basal chamber (seeding density: 5.0 × 10^4 cells per well). GL, Lf, or Lf-GL (100 × 10^–6 M of GL equivalent concentration) were added to the insert chamber, and cells were incubated for 24 h. CCK-8 assay and HMGB1 ELISA were conducted at the basal chamber.

[2] = SPR, HMGB1 immobilized, PBS pH 7.4, room temperature

B1: Lf-GL: lactoferrin-glycyrrhizin conjugate with ligation ratio Lf:GL 1:10, used in further experiments (conjugate, UniProt P24627 20-708, looked up)
Lactotransferrin: APRKNVRWCTISQPEWFKCRRWQWRMKKLGAPSITCVRRAFALECIRAIAEKKADAVTLDGGMVFEAGRDPYKLRPVAAEIYGTKESPQTHYYAVAVVKKGSNFQLDQLQGRKSCHTGLGRSAGWIIPMGILRPYLSWTESLEPLQGAVAKFFSASCVPCIDRQAYPNLCQLCKGEGENQCACSSREPYFGYSGAFKCLQDGAGDVAFVKETTVFENLPEKADRDQYELLCLNNSRAPVDAFKECHLAQVPSHAVVARSVDGKEDLIWKLLSKAQEKFGKNKSRSFQLFGSPPGQRDLLFKDSALGFLRIPSKVDSALYLGSRYLTTLKNLRETAEEVKARYTRVVWCAVGPEEQKKCQQWSQQSGQNVTCATASTTDDCIVLVLKGEADALNLDGGYIYTAGKCGLVPVLAENRKSSKHSSLDCVLRPTEGYLAVAVVKKANEGLTWNSLKDKKSCHTAVDRTAGWNIPMGLIVNQTGSCAFDEFFSQSCAPGADPKSRLCALCAGDDQGLDKCVPNSKEKYYGYTGAFRCLAEDVGDVAFVKNDTVWENTNGESTADWAKNLNREDFRLLCLDGTRKPVTEAQSCHLAVAPNHAVVSRSDRAAHVKQVLLHQQALFGKNGKNCPDKFCLFKSETKNLLFNDNTECLAKLGGRPTYEEYLGTEYVTAIANLKKCSTSPLLEACAFLTR
modifications: glycyrrhizin conjugate
KD, equilibrium dissociation constant (KD = Kd Ka^−1) ([1]; SPR, HMGB1 immobilized): 23.1 ± 0.1 nM
Ka, association rate constant [1, 2]: (2.64±0.01)·10^4 M^-1s^-1
Kd, dissociation rate constant [1, 2]: (3.11±0.02)·10^-4 M^-1s^-1
Affinity for HMGB1 higher than that of HMGB1 antibody ([1]; ratio of KD values): 45 fold
HMGB1 level in medium (HMGB1): 176.1 ± 4.9 ng/mL
